Experimental data published in patent publication US7919584B1, “Methods and compositions for diagnosis and treatment of asthma” (Arbor Vita Corporation, priority 2005, dated 2011).
Ends that are not written are not given here. Peptide text beside a SMILES is read from it. * marks the point of attachment. Biotin = O=C1N[C@H]2[C@H](CS[C@H]2CCCCC(=O)*)N1

T1: KIAA1284 (Homo sapiens, UniProt Q9ULD6)
T1 construct: made in house; host or cells: E. coli (DH5α, BL21 or JM109)
T1 sequence (Q9ULD6 with tags, fused parts or gaps): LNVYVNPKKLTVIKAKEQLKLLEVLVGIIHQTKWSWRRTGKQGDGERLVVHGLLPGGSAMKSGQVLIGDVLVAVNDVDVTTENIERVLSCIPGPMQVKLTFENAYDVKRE

T2: GST-TIP2 PDZ domain fusion protein (human, UniProt O14908 118-223)
T2 construct: domain: PDZ domain; not shown: glutathione-S transferase (GST) encoded by the pGEX-3X vector (Pharmacia); short vector-encoded linker
T2 sequence (looked up): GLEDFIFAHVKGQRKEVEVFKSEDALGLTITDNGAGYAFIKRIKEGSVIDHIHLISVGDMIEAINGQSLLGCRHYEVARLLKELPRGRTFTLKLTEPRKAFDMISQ

B1: Tat-hCLCA1 peptide (11 residues of Tat coupled to the C-terminal 9 amino acids of hCLCA1), biotinylated (peptide)
peptide: Biotin-YGRKKRRQRRRIGELQLSIA
notes: Synthetic peptide, HPLC purified; pre-mixed with HRP-streptavidin in the modified G assay; also called Tat-hCLCA1 (SIA)

What was measured:
KIAA1284 = target: T1, KIAA1284; assay: modified G assay titration, peptide vs constant GST-PDZ domain fusion; format: binding
Experimental: (§1) A Nunc Maxisorp 96 well Immunoplate (Nunc cat#62409-002) was coated with 100 μl of 5 μg/ml goat anti-GST polyclonal antibody (Amersham Pharmacia cat#27-457-01) and incubated overnight at 4° C. The plate was blocked by addition of 200 μl Assay Buffer (2% bovine serum albumin in PBS, pH 7.4) for 1 to 2 hours at room temperature, then washed three times in Assay Buffer.
(§2) 50 μl per well of GST-PDZ fusion proteins (5 μg/ml in Assay Buffer), or, as a negative control, GST polypeptide alone, was added to the plate, and incubated for 1 to 2 hours at 4° C.
(§3) Biotinylated peptides were prepared in Assay Buffer, in half the volume required at 40 μM. HRP-Streptavidin (Zymed cat#43-4323) was diluted 1:1000 in another half volume of Assay Buffer, then mixed with the peptides. The peptide-HRP mixtures were incubated for 20 minutes at room temperature. […]
(§4) The plate was then washed five times with room temperature PBS, and developed by addition of 100 μl/well of HRP substrate solution (3,3′,5,5′, tetramethylbensidine (TMB) (Dako cat#S1600)) for a maximum of 30 minutes in the dark at room temperature. The reaction of HRP and its substrate was terminated by addition of 100 μl of 0.18 M H2SO4 (Sigma cat#S1526), and the absorbance of each well of the plate was read at 450 nm.

GORASP1 d1 = target: T3, GORASP1 d1 (Homo sapiens, UniProt Q9BQQ3); assay: as above; format: binding
T3 construct: made in house; host or cells: E. coli (DH5α, BL21 or JM109)
Experimental: as §1, §2, §3, §4

[1] = target: T4, GST-PSD95 d2 (PDZ domain 2) fusion protein (human, UniProt P78352 147-253); assay: modified G assay, peptide titrated against a constant amount of immobilized GST-PDZ fusion; Hill fit
T4 construct: domain: d2; not shown: glutathione-S transferase (GST) encoded by the pGEX-3X vector (Pharmacia); short vector-encoded linker

[2] = target: T5, GST-GORASP1 (PDZ #1) fusion protein (human, UniProt P08515 1-218 = GST); assay: as above
T5 construct: also called GORASP1 d1; GRASP1; not shown: short vector-encoded linker (Gly-Ile, Gly-Ile-Pro-Gly-Asn or Gly-Ile-Pro, by cloning site); which one in this construct

[3] = target: T2, GST-TIP2 PDZ domain fusion protein; assay: as above
Experimental: 50 µl per well of GST-PDZ fusion proteins (5 µg/ml in Assay Buffer), or, as a negative control, GST polypeptide alone, was added to the plate, and incubated for 1 to 2 hours at 4° C.
Biotinylated peptides were prepared in Assay Buffer, in half the volume required at 40 µM. […] The peptide-HRP mixtures were incubated for 20 minutes at room temperature. The plate was washed three times with cold PBS, the peptide-HRP mixtures added at 50 µl per well, and the plate was incubated at room temperature for precisely 30 minutes after the addition of the last peptide.

[4] = target: T6, GST-KIAA1284 PDZ domain fusion protein (human, UniProt P08515 1-218 = GST); assay: as above
T6 construct: also called PDZK6; not shown: short vector-encoded linker
T6 sequence (P08515 1-218, tags or fused parts left off): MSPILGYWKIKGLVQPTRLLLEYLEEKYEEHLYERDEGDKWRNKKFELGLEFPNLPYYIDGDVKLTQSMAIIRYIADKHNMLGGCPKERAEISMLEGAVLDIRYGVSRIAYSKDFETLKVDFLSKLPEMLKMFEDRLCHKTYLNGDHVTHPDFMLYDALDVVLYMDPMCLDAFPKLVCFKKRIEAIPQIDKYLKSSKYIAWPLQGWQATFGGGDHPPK

T5 sequence (P08515 1-218, tags or fused parts left off): as above
T4 sequence (P78352 147-253): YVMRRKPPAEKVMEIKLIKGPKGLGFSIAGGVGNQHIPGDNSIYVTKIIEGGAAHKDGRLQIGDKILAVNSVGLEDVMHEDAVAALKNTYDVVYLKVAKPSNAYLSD
T3 sequence (Q9BQQ3 1-110): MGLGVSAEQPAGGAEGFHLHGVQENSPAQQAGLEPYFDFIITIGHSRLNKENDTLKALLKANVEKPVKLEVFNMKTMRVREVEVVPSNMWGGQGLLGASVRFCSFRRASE

Row | Molecule | EC50 (KIAA1284) | EC50 (GORASP1 d1) | EC50 [1] | EC50 [2] | EC50 [3] | EC50 [4]
1 | CC[C@H](C)[C@H](NC(=O)[C@H](CCCNC(=N)N)NC(=O)[C@H](CCCNC(=N)N)NC(=O)[C@H](CCCNC(=N)N)NC(=O)[C@H](CCC(N)=O)NC(=O)[C@H](CCCNC(=N)N)NC(=O)[C@H](CCCNC(=N)N)NC(=O)[C@H](CCCCN)NC(=O)[C@H](CCCCN)NC(=O)[C@H](CCCNC(=N)N)NC(=O)CNC(=O)[C@H](Cc1ccc(O)cc1)NC(=O)CCCC[C@@H]1SC[C@@H]2NC(=O)N[C@@H]21)C(=O)NCC(=O)N[C@@H](CCC(=O)O)C(=O)N[C@@H](CC(C)C)C(=O)N[C@@H](CCC(N)=O)C(=O)N[C@@H](CC(C)C)C(=O)N[C@@H](CO)C(=O)N[C@H](C(=O)N[C@@H](C)C(=O)O)[C@@H](C)CC [Tat-hCLCA1] (HELM PEPTIDE1{[O=C1N[C@H]2[C@H](CS[C@H]2CCCCC(=O)[*:2])N1].Y.G.R.K.K.R.R.Q.R.R.R.I.G.E.L.Q.L.S.I.A}$$$$V2.0) | 74 nM | 120 nM |  |  |  | 
2 | B1 |  |  | 3.1 µM | 120 nM | 1100 nM | 74 nM
